Reference: paper PMC6284238

Substrate: NC(=O)c1ccc[n+]([C@@H]2O[C@H](COP(=O)([O-])OP(=O)(O)OC[C@H]3O[C@@H](n4cnc5c(N)ncnc54)[C@H](O)[C@@H]3O)[C@@H](O)[C@H]2O)c1
Experiment: Michaelis-Menten kinetics of NAD+ cleavage by purified SARM1-TIR, HPLC
Type: biochemical, Homo sapiens
Conditions: E642 is a putative key catalytic residue within the active site

B1: SARM1-TIR (Homo sapiens) (protein)
chain: DTPDVFISYRRNSGSQLASLLKVHLQLHGFSVFIDVEKLEAGKFEDKLIQSVMGARNFVLVLSPGALDKCMQDHDCKDWVHKEIVTALSCGKNIVPIIDGFEWPEPQVLPEDMQAVLTFNGIKWSHEYQEATIEKIIRFLQGRS
Km: 24 µM
